Measurements from paper PMC11744834, “Allelic variation in an expansin, MdEXP-A1, contributes to flesh firmness at harvest in apples”.

B1: MdEXP-A1-P2 binding probe (dsDNA)
DNA 1: TAACAACAAAATGTGCCTAACGTATACATGCAAAATAATTTACCT
DNA 2: AGGTAAATTATTTTGCATGTATACGTTAGGCACATTTTGTTGTTA
B2: MdEXP-A1-P1 binding probe (dsDNA)
DNA 1: TACATGCAAAATAATTTACCTACGTAATAAATAATAAATATTGTT
DNA 2: AACAATATTTATTATTTATTACGTAGGTAAATTATTTTGCATGTA

Target: T1, MdNAC1 (Malus domestica? (apple), UniProt D9ZJ87 1-280)
T1 sequence: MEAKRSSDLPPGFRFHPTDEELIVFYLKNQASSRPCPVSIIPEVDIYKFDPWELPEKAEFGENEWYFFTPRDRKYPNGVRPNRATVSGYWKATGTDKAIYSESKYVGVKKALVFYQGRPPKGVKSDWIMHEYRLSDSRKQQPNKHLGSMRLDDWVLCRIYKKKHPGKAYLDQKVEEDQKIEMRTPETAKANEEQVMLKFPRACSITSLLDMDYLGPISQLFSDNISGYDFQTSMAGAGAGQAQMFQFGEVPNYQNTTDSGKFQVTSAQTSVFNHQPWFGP
Test: EMSA; Chemiluminescent EMSA Kit (GS009, Beyotime); cold competitor 50x; buffer, salt, pH and temperature not stated
Details: protein: recombinant; tags: GST (pGEX-6p-1); chain copies: 2; label: biotin; blunt

| Binder | binding result |
| --- | --- |
| B1 | binds |
| B2 | binds |
